How the values were obtained:
[1] = target: TK_ΔSBDα_T195A-B (Thermus thermophilus) (UniProt Q56235)
ClpB (Escherichia coli) = ClpB (Escherichia coli) (UniProt P63284); settings: cited from earlier work
[2] = target: TK_NBD-B (Thermus thermophilus) (UniProt Q56235)
Target sequence in this assay (Q56235 other isoform, or with tags, fused parts or gaps): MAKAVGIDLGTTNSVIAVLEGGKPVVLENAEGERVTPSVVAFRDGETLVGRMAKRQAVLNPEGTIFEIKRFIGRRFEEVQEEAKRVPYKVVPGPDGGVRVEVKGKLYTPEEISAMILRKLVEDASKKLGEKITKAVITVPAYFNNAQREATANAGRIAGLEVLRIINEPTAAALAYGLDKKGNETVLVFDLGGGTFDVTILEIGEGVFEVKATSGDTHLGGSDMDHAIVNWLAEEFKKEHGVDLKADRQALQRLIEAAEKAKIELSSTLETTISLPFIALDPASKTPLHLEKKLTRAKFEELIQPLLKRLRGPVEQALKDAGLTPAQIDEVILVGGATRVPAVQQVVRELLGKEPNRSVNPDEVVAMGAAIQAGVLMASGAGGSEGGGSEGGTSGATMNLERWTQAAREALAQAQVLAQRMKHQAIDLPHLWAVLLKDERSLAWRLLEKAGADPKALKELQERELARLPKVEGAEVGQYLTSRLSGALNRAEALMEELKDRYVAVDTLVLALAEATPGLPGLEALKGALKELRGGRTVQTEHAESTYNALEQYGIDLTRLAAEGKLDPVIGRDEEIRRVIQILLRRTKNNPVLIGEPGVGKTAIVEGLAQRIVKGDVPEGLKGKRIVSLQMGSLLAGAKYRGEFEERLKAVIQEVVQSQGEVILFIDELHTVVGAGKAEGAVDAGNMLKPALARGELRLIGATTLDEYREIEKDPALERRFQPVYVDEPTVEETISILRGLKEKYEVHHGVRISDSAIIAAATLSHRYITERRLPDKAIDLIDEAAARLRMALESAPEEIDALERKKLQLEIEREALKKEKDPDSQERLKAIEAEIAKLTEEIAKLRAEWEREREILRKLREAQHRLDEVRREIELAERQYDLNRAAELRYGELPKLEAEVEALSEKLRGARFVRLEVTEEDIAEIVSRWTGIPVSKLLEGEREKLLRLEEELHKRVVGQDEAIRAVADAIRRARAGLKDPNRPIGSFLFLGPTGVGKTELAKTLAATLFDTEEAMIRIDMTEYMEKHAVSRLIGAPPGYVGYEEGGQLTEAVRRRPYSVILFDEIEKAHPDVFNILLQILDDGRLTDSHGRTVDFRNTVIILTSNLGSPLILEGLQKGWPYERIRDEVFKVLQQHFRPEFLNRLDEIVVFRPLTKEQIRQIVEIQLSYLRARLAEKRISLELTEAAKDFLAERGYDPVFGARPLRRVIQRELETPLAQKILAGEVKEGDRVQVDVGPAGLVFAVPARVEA

[3] = target: TK_NBD_T195A-B (Thermus thermophilus) (UniProt Q56235)
[4] = target: TK_NBD_K69A-B (Thermus thermophilus) (UniProt Q56235)
[5] = target: TK_NBD-B (Thermus thermophilus) (UniProt Q56235); remark: listed apart in the source
Target sequence in this assay (Q56235 other isoform, or with tags, fused parts or gaps): as above

[6] = target: TK_NBD_T195A-B (Thermus thermophilus) (UniProt Q56235); remark: listed apart in the source
[7] = target: TK_NBD_K69A-B (Thermus thermophilus) (UniProt Q56235); remark: listed apart in the source
[8] = target: TK_NBD-B (Thermus thermophilus) (UniProt Q56235); remark: listed apart in the source
[9] = target: TK_ΔSBDα_K69A-B (Thermus thermophilus) (UniProt Q56235)
[10] = target: TK-B (Thermus thermophilus) (UniProt Q56235)

Sequence of Thermus thermophilus DnaK (TDnaK) (Q56235 whole entry, the tested form may be a part): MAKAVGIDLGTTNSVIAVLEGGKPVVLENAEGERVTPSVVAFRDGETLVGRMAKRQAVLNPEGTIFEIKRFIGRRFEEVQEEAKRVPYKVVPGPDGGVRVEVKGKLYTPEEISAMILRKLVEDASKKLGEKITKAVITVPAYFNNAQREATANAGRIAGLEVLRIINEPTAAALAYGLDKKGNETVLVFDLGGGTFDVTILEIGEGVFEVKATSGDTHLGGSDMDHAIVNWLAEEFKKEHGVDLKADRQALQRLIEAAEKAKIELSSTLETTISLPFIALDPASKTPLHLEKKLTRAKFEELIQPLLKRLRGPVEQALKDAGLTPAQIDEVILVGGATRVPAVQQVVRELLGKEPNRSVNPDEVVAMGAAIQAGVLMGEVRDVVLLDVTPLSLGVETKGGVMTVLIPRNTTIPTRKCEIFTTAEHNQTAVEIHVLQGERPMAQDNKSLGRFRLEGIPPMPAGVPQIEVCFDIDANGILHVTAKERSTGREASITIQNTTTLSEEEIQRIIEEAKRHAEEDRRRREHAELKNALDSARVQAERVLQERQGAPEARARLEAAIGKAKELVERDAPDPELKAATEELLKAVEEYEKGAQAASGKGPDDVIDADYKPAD
Sequence of TK_NBD_K69A-B (Thermus thermophilus) (Q56235 other isoform, or with tags, fused parts or gaps K69A | K69A): as the sequence (Q56235 other isoform, or with tags, fused parts or gaps) above, with K69A counted along it
Sequence of TK_NBD_T195A-B (Thermus thermophilus) (Q56235 other isoform, or with tags, fused parts or gaps T195A | T195A): as the sequence (Q56235 other isoform, or with tags, fused parts or gaps) above, with T195A counted along it
Sequence of DnaK (P0A6Y8 2-638): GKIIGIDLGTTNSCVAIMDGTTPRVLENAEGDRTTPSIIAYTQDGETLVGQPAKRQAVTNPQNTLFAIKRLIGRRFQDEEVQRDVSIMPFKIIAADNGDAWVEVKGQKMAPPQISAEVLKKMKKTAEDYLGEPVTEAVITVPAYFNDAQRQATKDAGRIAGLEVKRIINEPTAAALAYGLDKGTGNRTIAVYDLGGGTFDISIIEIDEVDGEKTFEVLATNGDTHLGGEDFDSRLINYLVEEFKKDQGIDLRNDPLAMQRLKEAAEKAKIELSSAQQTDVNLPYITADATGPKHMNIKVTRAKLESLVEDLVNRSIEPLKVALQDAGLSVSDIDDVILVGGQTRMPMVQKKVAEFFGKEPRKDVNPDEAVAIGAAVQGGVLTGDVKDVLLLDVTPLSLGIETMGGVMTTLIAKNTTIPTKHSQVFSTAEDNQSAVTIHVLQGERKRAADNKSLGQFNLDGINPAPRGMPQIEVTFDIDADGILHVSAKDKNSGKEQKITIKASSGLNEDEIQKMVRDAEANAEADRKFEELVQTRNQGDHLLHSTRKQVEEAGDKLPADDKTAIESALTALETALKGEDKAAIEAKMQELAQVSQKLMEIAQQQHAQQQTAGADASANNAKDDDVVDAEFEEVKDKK
Sequence of ClpB (Escherichia coli) (P63284 whole entry): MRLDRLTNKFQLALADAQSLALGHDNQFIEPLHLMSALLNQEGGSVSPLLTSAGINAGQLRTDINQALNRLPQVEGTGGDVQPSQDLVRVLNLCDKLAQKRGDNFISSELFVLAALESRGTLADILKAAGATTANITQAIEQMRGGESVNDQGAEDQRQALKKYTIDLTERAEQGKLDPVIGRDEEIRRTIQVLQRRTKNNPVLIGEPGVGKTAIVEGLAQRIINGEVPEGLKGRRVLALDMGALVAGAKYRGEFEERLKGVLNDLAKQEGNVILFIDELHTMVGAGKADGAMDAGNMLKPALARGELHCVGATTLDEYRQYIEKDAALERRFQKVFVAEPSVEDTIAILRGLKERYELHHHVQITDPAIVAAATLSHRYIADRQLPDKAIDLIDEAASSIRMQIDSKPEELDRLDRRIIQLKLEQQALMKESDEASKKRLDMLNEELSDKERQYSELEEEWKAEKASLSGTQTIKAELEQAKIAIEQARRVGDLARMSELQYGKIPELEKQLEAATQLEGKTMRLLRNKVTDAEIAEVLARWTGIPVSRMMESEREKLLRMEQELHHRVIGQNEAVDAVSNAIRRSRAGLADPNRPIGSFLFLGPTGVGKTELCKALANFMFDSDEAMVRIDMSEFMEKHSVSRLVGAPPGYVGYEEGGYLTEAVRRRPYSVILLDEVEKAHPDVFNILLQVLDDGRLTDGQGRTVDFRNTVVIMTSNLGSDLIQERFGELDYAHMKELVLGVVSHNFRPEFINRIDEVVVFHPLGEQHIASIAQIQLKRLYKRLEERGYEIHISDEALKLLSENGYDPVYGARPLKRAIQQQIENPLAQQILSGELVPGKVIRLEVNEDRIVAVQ

Which ATPase stimulation of the fusion, 55 °C, 3 mM ATP [1] does the source give for “TK_ΔSBDα_T195A-B (from UniProt Q56235 1-501; Q9RA63 1-854)” here?
Its ATPase stimulation of the fusion, 55 °C, 3 mM ATP is 2 fold.

Which Kd (ClpB (Escherichia coli)) does the source give for DnaK (from UniProt P0A6Y8) here?
The Kd was 25 µM.

For “Thermus thermophilus DnaK (TDnaK) (from UniProt Q56235 1-615) (natural protein)”, which reactivation of heat-aggregated α-glucosidase by the fusion with unfused TDnaK, TDnaJ, TGrpE (TKJE) and 5 mM ATP, 55 °C, 90 min [2] is on record?
The reactivation of heat-aggregated α-glucosidase by the fusion with unfused TDnaK, TDnaJ, TGrpE (TKJE) and 5 mM ATP, 55 °C, 90 min was less than 2%.

What about the reactivation of heat-aggregated α-glucosidase by the fusion with unfused TDnaK, TDnaJ, TGrpE (TKJE) and 5 mM ATP, 55 °C, 90 min [3] of the same substance?
The reactivation of heat-aggregated α-glucosidase by the fusion with unfused TDnaK, TDnaJ, TGrpE (TKJE) and 5 mM ATP, 55 °C, 90 min was less than 2%.

And the reactivation of heat-aggregated α-glucosidase by the fusion with unfused TDnaK, TDnaJ, TGrpE (TKJE) and 5 mM ATP, 55 °C, 90 min [4]?
The reactivation of heat-aggregated α-glucosidase by the fusion with unfused TDnaK, TDnaJ, TGrpE (TKJE) and 5 mM ATP, 55 °C, 90 min was less than 2%.

What about the rate of reactivation of heat-aggregated EYFP by the fusion with unfused TDnaK, TDnaJ, TGrpE (TKJE) and 5 mM ATP, 55 °C [5] of the same substance?
Its rate of reactivation of heat-aggregated EYFP by the fusion with unfused TDnaK, TDnaJ, TGrpE (TKJE) and 5 mM ATP, 55 °C is less than 0.1 % min^-1.

What about the rate of reactivation of heat-aggregated EYFP by the fusion with unfused TDnaK, TDnaJ, TGrpE (TKJE) and 5 mM ATP, 55 °C [6] of the same substance?
The rate of reactivation of heat-aggregated EYFP by the fusion with unfused TDnaK, TDnaJ, TGrpE (TKJE) and 5 mM ATP, 55 °C was less than 0.1 % min^-1.

And the rate of reactivation of heat-aggregated EYFP by the fusion with unfused TDnaK, TDnaJ, TGrpE (TKJE) and 5 mM ATP, 55 °C [7]?
Its rate of reactivation of heat-aggregated EYFP by the fusion with unfused TDnaK, TDnaJ, TGrpE (TKJE) and 5 mM ATP, 55 °C is less than 0.1 % min^-1.

Which ATPase activity of the fusion (TClpB portion stimulated by the fused NBD of TDnaK), 55 °C, 3 mM ATP, against TK-B [8] does the source give for “TK_NBD-B (from UniProt Q56235 1-377; Q9RA63 1-854)” here?
The ATPase activity of the fusion (TClpB portion stimulated by the fused NBD of TDnaK), 55 °C, 3 mM ATP, against TK-B was 2 fold of TK-B.

Which ATPase activity of the fusion, 55 °C, 3 mM ATP, against TK K69A-B (fold of TK K69A-B) [9] does the source give for “TK_ΔSBDα_K69A-B (from UniProt Q56235 1-501; Q9RA63 1-854)” here?
The ATPase activity of the fusion, 55 °C, 3 mM ATP, against TK K69A-B (fold of TK K69A-B) was 1.5.

For “TK-B (from UniProt Q56235 1-615; Q9RA63 1-854)”, which ATPase activity of the fusion (TClpB portion stimulated by the fused TDnaK portion), 55 °C, 3 mM ATP, against unfused TClpB (times that of TClpB) [10] is on record?
The ATPase activity of the fusion (TClpB portion stimulated by the fused TDnaK portion), 55 °C, 3 mM ATP, against unfused TClpB (times that of TClpB) was 5.
